Target: T1, CBP Full-HAT domain (central core catalytic region), 6His-tagged (mouse, UniProt P45481 1096-1700)
T1 sequence (looked up): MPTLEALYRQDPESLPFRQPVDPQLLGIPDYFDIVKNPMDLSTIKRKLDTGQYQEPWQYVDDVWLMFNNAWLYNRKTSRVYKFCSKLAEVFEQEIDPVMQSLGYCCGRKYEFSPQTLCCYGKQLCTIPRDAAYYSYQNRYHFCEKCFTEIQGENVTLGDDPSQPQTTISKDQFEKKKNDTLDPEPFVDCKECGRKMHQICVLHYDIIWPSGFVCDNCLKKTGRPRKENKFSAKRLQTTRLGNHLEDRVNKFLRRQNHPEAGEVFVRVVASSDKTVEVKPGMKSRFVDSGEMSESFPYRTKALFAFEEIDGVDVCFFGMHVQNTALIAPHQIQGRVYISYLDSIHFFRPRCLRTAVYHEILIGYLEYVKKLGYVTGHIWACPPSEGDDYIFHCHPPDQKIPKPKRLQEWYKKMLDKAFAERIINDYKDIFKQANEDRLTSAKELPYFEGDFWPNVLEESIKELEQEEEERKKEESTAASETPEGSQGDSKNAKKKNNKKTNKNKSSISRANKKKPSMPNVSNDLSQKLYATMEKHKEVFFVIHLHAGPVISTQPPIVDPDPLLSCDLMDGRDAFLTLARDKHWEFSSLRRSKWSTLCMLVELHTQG
Assay: BLI

B1: biotinylated recombinant full-length HSF2 (natural protein, UniProt Q03933 1-536, looked up)
chain: MKQSSNVPAFLSKLWTLVEETHTNEFITWSQNGQSFLVLDEQRFAKEILPKYFKHNNMASFVRQLNMYGFRKVVHIDSGIVKQERDGPVEFQHPYFKQGQDDLLENIKRKVSSSKPEENKIRQEDLTKIISSAQKVQIKQETIESRLSELKSENESLWKEVSELRAKHAQQQQVIRKIVQFIVTLVQNNQLVSLKRKRPLLLNTNGAQKKNLFQHIVKEPTDNHHHKVPHSRTEGLKPRERISDDIIIYDVTDDNADEENIPVIPETNEDVISDPSNCSQYPDIVIVEDDNEDEYAPVIQSGEQNEPARESLSSGSDGSSPLMSSAVQLNGSSSLTSEDPVTMMDSILNDNINLLGKVELLDYLDSIDCSLEDFQAMLSGRQFSIDPDLLVDLFTSSVQMNPTDYINNTKSENKGLETTKNNVVQPVSEEGRKSKSKPDKQLIQYTAFPLLAFLDGNPASSVEQASTTASSEVLSSVDKPIEVDELLDSSLDPEPTQSKLVRLEPLTEAEASEATLFYLCELAPAPLDSDMPLLDS
modifications: biotinylated with EZ-Link NHS-PEG4-Biotin at a molar ratio biotin/protein 3:1
  Kd: 1 nM
